Experimental data as given in the DeepSol protein solubility set.

Assay: soluble on expression in E. coli; label from the status in PepcDB or PDB records
For “MGSDKIHHHHHHEIFSEITTDNYYQNSNNIYAALVNNYAKAFSTGWSDARYFLQEVTADQLMIPTRGKHGYNGGEYVRLHEHKWTVEENFVYNGWAAPFQGIALCNNTLSDFENLDFSTFKLTEETKNEYIAELRALRVWNYMFLIDFFRHVPIVTDIEEVKAQSTPLEVFNFMESELLAILPDLPKNRGVSRFDQAGVASILVRLYLNAEKWIGISKYDECEQMAQAILDGKYGEYSIDPDYRGPFRSGINGYRSKENIMEFAIKKNYFEASWLYNMWMHYQDRYSLDNDWQGWNGGNLAPSRDLYGNLYQDKLGMPFEKFPDGDIRKKAFRVISNDGDYEGFFLMGTQYKFDYEKGYGFTDEVITGTEEYNGKPLVYVDQVGRFSEGETGLAKGSHVIYGEENTGYRLIKFPWLPQSKDLFQMNSIPEIRLAEIYYSLAECKYRSGDKIGAARLLDVVRKRYYKAEDWSKFSYESNISKLTDDEFVDELGREFIGERHRRIDLIRWNRFSEGAWWDKTPDATNQDVFPIPYRALNANPLLKQTTAGF”, the “soluble on expression in E. coli” value was “not soluble”.
With “MAYATVEDMVARFGELEVLQLTDRNNEGLIDREVAQTALVDATAEIDAYLGRFRRPFEDLPPILVRLCCDIARYRLTAAQGVLITDEIRNRYKIDVLDLLRAMAKGEVQLGVDDSGEEVAAGEDGIVFVNGKNKVFGRDH” the “soluble on expression in E. coli” value was “not soluble”.
For “MLTQEQIDIIREGPDYFLESIWFRIGQLYGLSPGQIDHDSFEERKNDLFFLLGKLLDEGQIKIGNHKGNFISGPTPALVEMFRSSFPDSDEKAQAIWFITECPGGIVWVLKGQGEKGQDVYKWWLFKDEK”, the “soluble on expression in E. coli” value was “not soluble”.
In the case of “MSLRRLLQVFFFCPKQIYSFKLYQSLIFYNYTDAFFSVKIVSTTNFGGHIMSTTIIGFPRLGEFRELKFTTEKYFRKEISEEELLAAAKDLRAKHWNIVKEKGITEIPSNDFSHYDNFLDAAFLFNVVPASVQNLDLSDLERYFALGRGYQGEKGDVRALPMKKWFNTNYHYIVPKFEKDTQVKLAGHKIFDEFQEAKELGLNTRPVLVGPFTFLQLSDFEEGVKADDFVDSFVAAYQEVFAKLADLGATRIQLDEAALVKDLTAEEKALFLNLYNKLLADKKGLEVLFQTYFGDVRDVYADLVNLPVDAIGLDFVEGKKTLELVKGGFPADKTLYVGIVNGKNIWRNNYEKSLTVLEQIPAENIVLTSSCSLLHVPFTTANEEFEPALLNHFAFAVEKLDEIRDLDAIRNGQGSEALAANKELFATERVGENAELRARIAGLTDADYTRLPAFAEREAIQEEAFKLPALPTTTIGSFPQTKEVRAKRLAYRKGELSQKEYDAFLAETIDEWIKWQEDIDFDVLVHGEFERNDMVEYFGQNLSGYLFSKNGWVQSYGMRGVKPPIIWGDVTRLNPITVKWSSYAQSRTNKPVKGMLTGPVTILNWSFPREDISIKDSTLQIALAIKDEVLDLEAAGVKIIQIDEAALREKLPLRRSDWYEDYLDWAIPAFRLVHSTVAPDTQIHTHMCYSEFTDIIPAIDNMDADVISFEASRSNLEILDELKAKNFQTEVGPGVYDIHSPRVPNEGEIDNTIEAILAKVPSKKVWINPDCGLKTRGIPETKESLIRLVEAAKAAREKLEGHHHHHH”, the “soluble on expression in E. coli” value is reported as “soluble”.
In the case of “SAEDGLPKIYSHPPTESSKTPTAATIFFGADNAIPKSETTITSEGDHVTSVNEYMLESDFSTTTDNKLTAKKEKLKSEDDMGTDFIKSTTHLQKEITSLTGTTNSITRDSITEHFMPVKIGNISSPVTTVSLIDFSTDIAKEDILLATIDTGDAEISITSEVSGTLKDSSAGVADAPAFPRKKDEADMSNYNSSIKSNVPADEAVQVTDSIIPEAEIPPAPEESFTTIPDITALEEEKITEIDLSVLEDDTSAVATLTDSDEKFITVFELTTSAEKDKDKREDTLLTDEETTEGASIGMERDTANEAETHSVLLTAVESRYDFVVPASIATNLVEESSTEEDLSETDNTETVPKITEPFSGTTSVLDTPDYKEDTSTTETDIFELLKEEPDEFMI”, the “soluble on expression in E. coli” value is reported as “not soluble”.
For “MINIYYNVEPLRSNEEITDFVNKARNGTHGERNALLILIGLNTGLRMSDILNLKVGQIRYHDIVHITEKKTKKRRVILLTRLRPQINHYIKDLPDNEYLFTNRQHQPLSVNAVYKLFQTIARKMHRTDIGTHTLRKTFGYHYYQQTHDIGTLMMIFNHSNEAITKRYIGLNQDVILKQMAGFQLGLEYEKATNMR”, the “soluble on expression in E. coli” value was “not soluble”.
With “MSLCAREPRVPADRLVAEMVPPPRFDSVRFGTYVPDPNQPSQSEAVRVLEDFAGGLGEAPGTGGGRRGFFGLGRGRAPKTPAGPRGVYLDGGYGVGKTHLLASLWHATPAEPSRKAFGTFVELTNLVGALGFQQTVQTLSGHRLLCIDEFELDDPGDTVLVSSLLARLVEAGVALAATSNTLPGKLGEGRFAAADFLREIQGLSAHFRALRIDGEDYRHRGLPEAPAPYSDEQVTRAARATEGASLDDFAALLDHLARVHPSRYGALTDGLTAVCLTGVHPVPDQSTALRLVVLADRLYDREVPVLASGLPFDRLFGEEMLKGGYRKKYFRAISRLTALARDAARLVDTAAAALEHHHHHH” the “soluble on expression in E. coli” value was “not soluble”.
For “MGSDKIHHHHHHVSKIGIPRTLAYFIYFPLWKTFFEELGHEVVLSPATSKAILDRGVKEAVNDACIPIKLYHGHAAALAGKVDYIFCPRLVSVRSHGDFGTETFCPKFLGLPDMLRLAMDDLPEIIDVRVDLKQGKDGLWQLSQEIGKGLGNSREEIKRAFNRAREQQRQYNRLLYQEMLPLEALKIIEQKNPIPKKEKSNENYDLQVAVVGYPYLLYDAYINAGLLAILEKEKVKVYTQDIISDRKMNQQAKTLPKSTFWYFSNRVIYGALHFMQRPEIEGVIHLTAFACGPDSMVDRLLEIESRRRGNRPYLSIAVDEHTGEAGVRTRIEAFVDMLRYRRERK”, the “soluble on expression in E. coli” value was “not soluble”.
For “MKSMEIDVEHIFDCLDRYGKGELTEKQLTKGVTDDEKMFLIMHQGLLGGNTDSEEEFNVLDWLGEEESFFMIVEINENLCRKAESILEEIGVEMPDVIESFLKQLVETKQLPVVVND”, the “soluble on expression in E. coli” value was “not soluble”.
With “MLEPCTKRSELLYRMHLLSKEISHVFEQQTNMSFTKVEILFHIKQTPGQSQNRLKEKLYIDSASITRHLKRMEEQGLIVRKKQDENKRYTYLFLTPAGEAELTSLLTEKEKFQTGALEGFSEDEVSALLKSVTKMMNNVEKLEEKLK” the “soluble on expression in E. coli” value was “not soluble”.
With “MGMVSDAVIRHQGKVIAVYPDGILPLEPPRQNASQLYLTSGMDERKRKLIDLGEAFVILAGGFGTMEESFQLLTEMSINQTAVRPVIFVGRKFYQPLFDLLRLQLKEGMISKEVIDAISLVDTAEETIELLGDLKLEQVVLEHHHHHH” the “soluble on expression in E. coli” value was “not soluble”.
In the case of “MVNNEYQQLNTLVESDDEADLVIANLVKQLNELKQILVSLDNQEASATAVTDKKEEEYNQNQSSFHNFSKETLQKQAKRGFLLLERCSLVGLQQLELEYVNLLGRSFDSYQQKTELLNNLKELVDEHFSDTEKIINTLEKIFDVIGGSEYTPVLNSFFNKLLSDPDPIQREIGLRQFIITLRQRFKKLSQKIDSSLKQIETEAKIATEQVQNSEVMFGPPDIANDHELNLNWPDSETDAILSSMENELEAALLAKHQEEPPLIVTPPSLIKPTVSQPEVEVVTPTNNTNFQPQVDLKPTDLKKQQKKKPLNFITRPVFKSNLPPKLSKDDIVHYAHQLLEKNTHNE”, the “soluble on expression in E. coli” value is reported as “soluble”.
In the case of “HMAEIYLAGGCFWGLEEYFSRISGVLETSVGYANGQVETTNYQLLKETDHAETVQVIYDEKEVSLREILLYYFRVIDPLSINQQGNDRGRQYRTGIYYQDEADLPAIYTVVQEQERMLGRKIAVEVEQLRHYILAEDYHQDYLRKNPSGYCHIDVTDADKPLIDAANYEKPSQEVLKASLSEESYRVTQEAATEAPFTNAYDQTFEEGIYVDITTGEPLFFAKDKFASGCGWPSFSRPLSKELIHYYKDLSHGMERIEVRSRSGSAHLGHVFTDGPRELGGLRYCINSASLRFVAKDEMEKAGYGYLLPYLNK”, the “soluble on expression in E. coli” value is reported as “soluble”.
In the case of “MGSDKIHHHHHHMNVAILGNQARAMVNFWSVFIARLQADGHTVVCIIPPGDAEGDAALTSMGVRVRHYPLDRKGLNPVRDVATFAALYRIFRQERPDRLFCFTIKPVIYGATAAALARVPGRVAMITGLGYMFEADTPVKRLLNRVAVLMYRAALACVHTVFFQNEEDRAVFTAKGIVPAGTEVAMSRGTGVALDHFAPAETVTAPVTFLLVGRLIEAKGLYEYAEAARMLKARHPEARFRVLGPPEQGLGSVPMETINQWHREGVIEYMGQTRDVRPFLREASVVVLPSWREGTPCSVMEGMSMARAAIVTDAPGCREVVEDGVNGFMVPLRSPEALAAAMERFIEDPSLVQRMGRAGRDLAEREFDAEKVAAHIMRVMRLDAAPRAGGNPQ”, the “soluble on expression in E. coli” value is reported as “not soluble”.
